Laboratory results taken from article PMC2883945 (Molecular Biology of the Cell, 2010).

T1: Bik1 (purified from insect cells, 6xHis tag removed) (S. cerevisiae, UniProt P11709 1-440)
T1 sequence (looked up): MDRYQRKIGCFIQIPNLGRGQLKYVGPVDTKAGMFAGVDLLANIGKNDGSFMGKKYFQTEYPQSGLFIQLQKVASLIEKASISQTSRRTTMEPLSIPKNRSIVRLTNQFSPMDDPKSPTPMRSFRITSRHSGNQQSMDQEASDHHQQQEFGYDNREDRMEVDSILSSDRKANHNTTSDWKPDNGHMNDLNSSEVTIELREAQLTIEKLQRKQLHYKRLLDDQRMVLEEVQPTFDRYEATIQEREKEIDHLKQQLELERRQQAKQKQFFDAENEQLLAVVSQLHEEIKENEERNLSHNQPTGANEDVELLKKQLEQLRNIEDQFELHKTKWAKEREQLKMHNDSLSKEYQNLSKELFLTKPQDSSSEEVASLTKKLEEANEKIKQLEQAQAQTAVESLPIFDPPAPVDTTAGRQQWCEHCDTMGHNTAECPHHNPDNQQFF


Key:
[1] = molecular target: taxol-stabilized microtubules (bovine brain tubulin) (bovine) (UniProt Q6B856); assay: co-sedimentation
[2] = molecular target: T1, Bik1 (purified from insect cells, 6xHis …); assay: SEC + other: sucrose gradient sedimentation
[3] = molecular target: the molecule itself; assay: SEC + other: sucrose gradient sedimentation

| Kd [1] [nM] | stoichiometry N [2] | Binder | stoichiometry N [3] |
| --- | --- | --- | --- |
| 500 | 1 Bim1 per Bik1 (2:2 tetramer) | Bim1 (purified from insect cells, 6xHis tag removed) (natural protein, S. cerevisiae, UniProt P40013 1-344, looked up) MSAGIGESRTELLTWLNGLLNLNYKKIEECGTGAAYCQIMDSIYGDLPMNRVKFNATAEYEFQTNYKILQSCFSRHGIEKTVYVDKLIRCKFQDNLEFLQWLKKHWIRHKDESVYDPDARRKYRPIITNNSATKPRTVSNPTTAKRSSSTGTGSAMSGGLATRHSSLGINGSRKTSVTQGQLVAIQAELTKSQETIGSLNEEIEQYKGTVSTLEIEREFYFNKLRDIEILVHTTQDLINEGVYKFNDETITGHGNGNGGALLRFVKKVESILYATAEGFEMNDGEDELNDKNLGEHGTVPNQGGYANSNGEVNGNEGSNHDVIMQNDEGEVGVSNNLIIDEETF |  |
|  |  | Bim1, endogenous in yeast whole cell extract (natural protein, S. cerevisiae (endogenous in CUY28), UniProt P40013 1-344, looked up) MSAGIGESRTELLTWLNGLLNLNYKKIEECGTGAAYCQIMDSIYGDLPMNRVKFNATAEYEFQTNYKILQSCFSRHGIEKTVYVDKLIRCKFQDNLEFLQWLKKHWIRHKDESVYDPDARRKYRPIITNNSATKPRTVSNPTTAKRSSSTGTGSAMSGGLATRHSSLGINGSRKTSVTQGQLVAIQAELTKSQETIGSLNEEIEQYKGTVSTLEIEREFYFNKLRDIEILVHTTQDLINEGVYKFNDETITGHGNGNGGALLRFVKKVESILYATAEGFEMNDGEDELNDKNLGEHGTVPNQGGYANSNGEVNGNEGSNHDVIMQNDEGEVGVSNNLIIDEETF | 2 |
|  |  | Bik1, endogenous in yeast whole cell extract (natural protein, S. cerevisiae (endogenous in CUY28), UniProt P11709 1-440, looked up) MDRYQRKIGCFIQIPNLGRGQLKYVGPVDTKAGMFAGVDLLANIGKNDGSFMGKKYFQTEYPQSGLFIQLQKVASLIEKASISQTSRRTTMEPLSIPKNRSIVRLTNQFSPMDDPKSPTPMRSFRITSRHSGNQQSMDQEASDHHQQQEFGYDNREDRMEVDSILSSDRKANHNTTSDWKPDNGHMNDLNSSEVTIELREAQLTIEKLQRKQLHYKRLLDDQRMVLEEVQPTFDRYEATIQEREKEIDHLKQQLELERRQQAKQKQFFDAENEQLLAVVSQLHEEIKENEERNLSHNQPTGANEDVELLKKQLEQLRNIEDQFELHKTKWAKEREQLKMHNDSLSKEYQNLSKELFLTKPQDSSSEEVASLTKKLEEANEKIKQLEQAQAQTAVESLPIFDPPAPVDTTAGRQQWCEHCDTMGHNTAECPHHNPDNQQFF | 2 |
